Measurements published in US9645151B2, “Targeting phosphofructokinase and its glycosylation form for cancer” (California Institute of Technology, priority 2012, dated 2017).
One block for each molecule: values may come before it.

Legend:
[1] = molecular target: T1, PFK1 (Homo sapiens, UniProt P17858); test: PFK1 oligomerization by native gel electrophoresis; settings: 50 nM F-2,6-BP, 50° C. for 30 min (FIG. 21)
T1 construct: made in house
T1 sequence (P17858 1-780): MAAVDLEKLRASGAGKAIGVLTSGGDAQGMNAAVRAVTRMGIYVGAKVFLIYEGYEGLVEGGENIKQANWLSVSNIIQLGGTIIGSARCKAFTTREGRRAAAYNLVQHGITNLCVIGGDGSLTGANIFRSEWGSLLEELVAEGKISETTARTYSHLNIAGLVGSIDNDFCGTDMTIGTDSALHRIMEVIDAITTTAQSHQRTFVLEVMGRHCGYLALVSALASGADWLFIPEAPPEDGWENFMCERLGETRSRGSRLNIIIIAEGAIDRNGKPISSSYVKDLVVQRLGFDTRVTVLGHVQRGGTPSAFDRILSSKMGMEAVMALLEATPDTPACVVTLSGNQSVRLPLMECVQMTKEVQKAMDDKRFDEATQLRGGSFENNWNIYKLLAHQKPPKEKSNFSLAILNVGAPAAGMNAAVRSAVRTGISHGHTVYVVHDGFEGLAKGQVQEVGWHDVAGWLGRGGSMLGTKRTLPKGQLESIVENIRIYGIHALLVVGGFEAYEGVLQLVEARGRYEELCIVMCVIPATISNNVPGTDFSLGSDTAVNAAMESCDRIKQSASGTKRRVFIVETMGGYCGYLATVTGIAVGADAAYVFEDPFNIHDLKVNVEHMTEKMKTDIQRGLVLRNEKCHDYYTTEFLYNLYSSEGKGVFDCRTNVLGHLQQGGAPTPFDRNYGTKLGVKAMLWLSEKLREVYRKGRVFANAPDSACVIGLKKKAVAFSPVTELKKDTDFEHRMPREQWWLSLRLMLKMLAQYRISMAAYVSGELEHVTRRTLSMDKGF
Description: Flag-tagged PFK1 (L isoform) was transiently expressed in 293T cells with or without co-expression of HA-tagged OGT. After 36 h, Flag-tagged PFK1 was isolated from the lysate using Flag M2 immunoaffinity resin and eluted with a 3 Å˜Flag peptide as described above. The eluent was concentrated using Amicon Ultra Centrifugal Filters (10-kD molecular weight cutoff). Similarly, 293T cells expressing Flag-tagged PFK1 were treated with PUGNAc (100 μM, 12 h) or cultured under hypoxic conditions (0.5% O2, 5% CO2, and 94.5% N2) at 37° C. for 24 h, before protein isolation. As a control, heat treatment of PFK1 in the presence or absence of 50 nM F-2,6-BP was performed at 50° C. for 30 min. The proteins were then subjected to native gel electrophoresis (Bio-Rad) and visualized by Coomassie blue staining as described above.

[2] = tested on: H1299, A549, or 293T cells; test: Cell viability by trypan blue exclusion after PUGNAc treatment; type: cell-based, human; settings: PUGNAc 100 μM for 9 h
[3] = tested on: PFK1; test: Analysis of PFK1 glycosylation (chemoenzymatic labeling, immunoblot); type: cell-based, human; settings: 293T cells (FIG. 14)
Description: To carry out chemoenzymatic labeling and biotinylation of proteins in cell lysates, cell lines and tissues were first lysed in lysis buffer (1% SDS, 50 mM Tris-HCl, pH 7.5, 100 mM NaCl, 10 μM PUGNAc, and Complete™ protease inhibitors (Roche)). The cell lysate (400 μg) was then labeled according to the Click-iT O-GlcNAc Enzymatic Labeling System protocol (Invitrogen) and conjugated with an alkyne-biotin compound as per the Click-iT Protein Analysis Detection Kit protocol (Invitrogen). Control experiments were carried out in parallel in the absence of the labeling enzyme GalT. […] To quantify the percentage of glycosylation, the intensity of the band eluted from resin (the glycosylated protein fraction) and the band from the input (the total protein) were measured. […] The percentage of glycosylation on Flag-tagged PFK1 was determined by using an antibody to Flag. To quantify the percentage of glycosylation, the intensity of the PEG-shifted band (the glycosylated protein fraction) and the unshifted band (the non-glycosylated protein fraction) were measured and the ratio of the intensity of the glycosylated protein fraction over the intensity of the total protein (glycosylated protein fraction plus non-glycosylated protein fraction) was taken as the glycosylation stoichiometry.

[4] = molecular target: T2, PFK1 (Homo sapiens, UniProt P17858); test: PFK1 enzymatic assay; type: biochemical
T2 construct: made in house
T2 sequence (P17858 2-780): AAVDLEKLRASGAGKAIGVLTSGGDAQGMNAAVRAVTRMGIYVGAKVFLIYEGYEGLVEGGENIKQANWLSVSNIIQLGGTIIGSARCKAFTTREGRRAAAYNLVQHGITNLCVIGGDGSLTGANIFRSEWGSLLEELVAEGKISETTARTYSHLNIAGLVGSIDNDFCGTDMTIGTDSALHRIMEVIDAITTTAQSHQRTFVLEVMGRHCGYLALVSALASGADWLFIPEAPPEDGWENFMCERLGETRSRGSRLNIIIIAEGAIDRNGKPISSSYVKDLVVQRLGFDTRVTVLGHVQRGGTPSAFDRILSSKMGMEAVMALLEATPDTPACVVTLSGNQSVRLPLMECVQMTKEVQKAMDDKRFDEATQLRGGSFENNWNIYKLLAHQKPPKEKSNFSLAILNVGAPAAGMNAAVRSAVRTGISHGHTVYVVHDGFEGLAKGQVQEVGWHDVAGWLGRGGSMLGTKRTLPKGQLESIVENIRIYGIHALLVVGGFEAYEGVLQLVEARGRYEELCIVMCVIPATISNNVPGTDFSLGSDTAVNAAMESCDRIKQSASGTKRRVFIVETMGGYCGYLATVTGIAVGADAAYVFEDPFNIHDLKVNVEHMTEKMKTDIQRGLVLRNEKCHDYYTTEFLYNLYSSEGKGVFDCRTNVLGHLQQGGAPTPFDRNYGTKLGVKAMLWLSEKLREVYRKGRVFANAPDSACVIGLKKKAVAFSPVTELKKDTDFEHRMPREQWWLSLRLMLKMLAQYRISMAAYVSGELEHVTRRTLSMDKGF
Description: In order to measure PFK1 activity, a reaction was performed using either cell lysate (20 μg) or recombinant purified PFK1 (0.1 μg) in 1 ml of reaction buffer containing 50 mM Tris-HCl pH 7.5, 100 mM KCl, 5 mM MgCl2, 1 mM ATP, 0.2 mM NADH, 5 mM Na2HPO4, 0.1 mM AMP, 1 mM NH4Cl, 5 mM fructose-6-phosphate, 5 U of triose phosphate isomerase (Sigma-Aldrich), 1 U of aldolase (Sigma-Aldrich) and 1 U of α-glycerophosphate dehydrogenase (Sigma-Aldrich). Absorbance was recorded at 340 nm at room temperature every 15 s for 10 min using a Uvikon UV-Vis spectrophotometer (Research Instruments International). One unit of PFK1 activity is defined as the amount of enzyme that catalyzes the conversion of 1 μmol of fructose-6-phosphate to fructose-1,6-bisphosphate per min.
In order to determine the activation of PFK1 by F-2,6-BP (Sigma-Aldrich) over the indicated concentrations, reactions were performed in similar buffer conditions as described above except that an inhibitory concentration of ATP (3 mM) was used. […]
293T cells were transiently transfected with Flag-tagged PFKL, Myc-tagged PFKP, or Myc-tagged PFKM. […] Glycosylation levels were analyzed by chemoenzymatic labeling with a 5-kD mass tag, and PFK1 activities were measured on the purified proteins as described above.

Molecule: O=P(O)(O)OC[C@H]1O[C@@](CO)(OP(=O)(O)O)[C@@H](O)[C@@H]1O [F-2,6-BP, fructose-2,6-bisphosphate]
- rescue of reduction of PFK1 oligomerization state by heat denaturation [1]: partial rescue

Molecule: CC(=O)N[C@H]1/C(=N/OC(=O)Nc2ccccc2)O[C@H](CO)[C@@H](O)[C@@H]1O [PUGNAc, O-(2-acetamido-2-deoxy-D-glucopyranosylidene) amino Nphenylcarbamate]
- effect on cell viability [2]: did not affect cell viability

- PFK1 activity under hypoxia ([4]; expressed in 293T cells, hypoxic vs normoxic (FIG. 2A)): not significantly changed
B1: S529A PFK1: modified PFK-1 polypeptide with serine to alanine substitution at position 529 (SEQ ID NO: 2) (protein)
chain: MAAVDLEKLRASGAGKAIGVLTSGGDAQGMNAAVRAVTRMGIYVGAKVFLIYEGYEGLVEGGENIKQANWLSVSNIIQLGGTIIGSARCKAFTTREGRRAAAYNLVQHGITNLCVIGGDGSLTGANIFRSEWGSLLEELVAEGKISETTARTYSHLNIAGLVGSIDNDFCGTDMTIGTDSALHRIMEVIDAITTTAQSHQRTFVLEVMGRHCGYLALVSALASGADWLFIPEAPPEDGWENFMCERLGETRSRGSRLNIIIIAEGAIDRNGKPISSSYVKDLVVQRLGFDTRVTVLGHVQRGGTPSAFDRILSSKMGMEAVMALLEATPDTPACVVTLSGNQSVRLPLMECVQMTKEVQKAMDDKRFDEATQLRGGSFENNWNIYKLLAHQKPPKEKSNFSLAILNVGAPAAGMNAAVRSAVRTGISHGHTVYVVHDGFEGLAKGQVQEVGWHDVAGWLGRGGSMLGTKRTLPKGQLESIVENIRIYGIHALLVVGGFEAYEGVLQLVEARGRYEELCIVMCVIPATIANNVPGTDFSLGSDTAVNAAMESCDRIKQSASGTKRRVFIVETMGGYCGYLATVTGIAVGADAAYVFEDPFNIHDLKVNVEHMTEKMKTDIQRGLVLRNEKCHDYYTTEFLYNLYSSEGKGVFDCRTNVLGHLQQGGAPTPFDRNYGTKLGVKAMLWLSEKLREVYRKGRVFANAPDSACVIGLKKKAVAFSPVTELKKDTDFEHRMPREQWWLSLRLMLKMLAQYRISMAAYVSGELEHVTRRTLSMDKGF
- glycosylation of PFK1 mutant [3]: abolished
- PFK1 activity versus F-2,6-BP concentration ([4]; 3 mM ATP (FIG. 19)): impaired at lower F-2,6-BP concentrations
